B1: AtHPPD (Arabidopsis thaliana; S267A) (protein)
chain: MGHQNAAVSENQNHDDGAASSPGFKLVGFSKFVRKNPKSDKFKVKRFHHIEFWCGDATNVARRFSWGLGMRFSAKSDLSTGNMVHASYLLTSGDLRFLFTAPYSPSLSAGEIKPTTTASIPSFDHGSCRSFFSSHGLGVRAVAIEVEDAESAFSISVANGAIPSSPPIVLNEAVTIAEVKLYGDVVLRYVSYKAEDTEKSEFLPGFERVEDASSFPLDYGIRRLDHAVGNVPELGPALTYVAGFTGFHQFAEFTADDVGTAESGLNAAVLASNDEMVLLPINEPVHGTKRKSQIQTYLEHNEGAGLQHLALMSEDIFRTLREMRKRSSIGGFDFMPSPPPTYYQNLKKRVGDVLSDDQIKECEELGILVDRDDQGTLLQIFTKPLGDRPTIFIEIIQRVGCMMKDEEGKAYQSGGCGGFGKGNFSELFKSIEEYEKTLEAKQLVG
notes: full-length, N-terminal His tag (pET15b), E. coli BL21 (DE3); Ni-NTA, ion exchange, size exclusion; homodimers in crystal
B2: AtHPPD (Arabidopsis thaliana; F381A) (protein)
chain: MGHQNAAVSENQNHDDGAASSPGFKLVGFSKFVRKNPKSDKFKVKRFHHIEFWCGDATNVARRFSWGLGMRFSAKSDLSTGNMVHASYLLTSGDLRFLFTAPYSPSLSAGEIKPTTTASIPSFDHGSCRSFFSSHGLGVRAVAIEVEDAESAFSISVANGAIPSSPPIVLNEAVTIAEVKLYGDVVLRYVSYKAEDTEKSEFLPGFERVEDASSFPLDYGIRRLDHAVGNVPELGPALTYVAGFTGFHQFAEFTADDVGTAESGLNSAVLASNDEMVLLPINEPVHGTKRKSQIQTYLEHNEGAGLQHLALMSEDIFRTLREMRKRSSIGGFDFMPSPPPTYYQNLKKRVGDVLSDDQIKECEELGILVDRDDQGTLLQIATKPLGDRPTIFIEIIQRVGCMMKDEEGKAYQSGGCGGFGKGNFSELFKSIEEYEKTLEAKQLVG
notes: as for B1
B3: AtHPPD (Arabidopsis thaliana; N282A) (protein)
chain: MGHQNAAVSENQNHDDGAASSPGFKLVGFSKFVRKNPKSDKFKVKRFHHIEFWCGDATNVARRFSWGLGMRFSAKSDLSTGNMVHASYLLTSGDLRFLFTAPYSPSLSAGEIKPTTTASIPSFDHGSCRSFFSSHGLGVRAVAIEVEDAESAFSISVANGAIPSSPPIVLNEAVTIAEVKLYGDVVLRYVSYKAEDTEKSEFLPGFERVEDASSFPLDYGIRRLDHAVGNVPELGPALTYVAGFTGFHQFAEFTADDVGTAESGLNSAVLASNDEMVLLPIAEPVHGTKRKSQIQTYLEHNEGAGLQHLALMSEDIFRTLREMRKRSSIGGFDFMPSPPPTYYQNLKKRVGDVLSDDQIKECEELGILVDRDDQGTLLQIFTKPLGDRPTIFIEIIQRVGCMMKDEEGKAYQSGGCGGFGKGNFSELFKSIEEYEKTLEAKQLVG
notes: as for B1
B4: AtHPPD (Arabidopsis thaliana; N423A) (protein)
chain: MGHQNAAVSENQNHDDGAASSPGFKLVGFSKFVRKNPKSDKFKVKRFHHIEFWCGDATNVARRFSWGLGMRFSAKSDLSTGNMVHASYLLTSGDLRFLFTAPYSPSLSAGEIKPTTTASIPSFDHGSCRSFFSSHGLGVRAVAIEVEDAESAFSISVANGAIPSSPPIVLNEAVTIAEVKLYGDVVLRYVSYKAEDTEKSEFLPGFERVEDASSFPLDYGIRRLDHAVGNVPELGPALTYVAGFTGFHQFAEFTADDVGTAESGLNSAVLASNDEMVLLPINEPVHGTKRKSQIQTYLEHNEGAGLQHLALMSEDIFRTLREMRKRSSIGGFDFMPSPPPTYYQNLKKRVGDVLSDDQIKECEELGILVDRDDQGTLLQIFTKPLGDRPTIFIEIIQRVGCMMKDEEGKAYQSGGCGGFGKGAFSELFKSIEEYEKTLEAKQLVG
notes: as for B1
B5: AtHPPD (Arabidopsis thaliana; Q307A) (protein)
chain: MGHQNAAVSENQNHDDGAASSPGFKLVGFSKFVRKNPKSDKFKVKRFHHIEFWCGDATNVARRFSWGLGMRFSAKSDLSTGNMVHASYLLTSGDLRFLFTAPYSPSLSAGEIKPTTTASIPSFDHGSCRSFFSSHGLGVRAVAIEVEDAESAFSISVANGAIPSSPPIVLNEAVTIAEVKLYGDVVLRYVSYKAEDTEKSEFLPGFERVEDASSFPLDYGIRRLDHAVGNVPELGPALTYVAGFTGFHQFAEFTADDVGTAESGLNSAVLASNDEMVLLPINEPVHGTKRKSQIQTYLEHNEGAGLAHLALMSEDIFRTLREMRKRSSIGGFDFMPSPPPTYYQNLKKRVGDVLSDDQIKECEELGILVDRDDQGTLLQIFTKPLGDRPTIFIEIIQRVGCMMKDEEGKAYQSGGCGGFGKGNFSELFKSIEEYEKTLEAKQLVG
notes: as for B1
B6: AtHPPD (Arabidopsis thaliana; Q293A) (protein)
chain: MGHQNAAVSENQNHDDGAASSPGFKLVGFSKFVRKNPKSDKFKVKRFHHIEFWCGDATNVARRFSWGLGMRFSAKSDLSTGNMVHASYLLTSGDLRFLFTAPYSPSLSAGEIKPTTTASIPSFDHGSCRSFFSSHGLGVRAVAIEVEDAESAFSISVANGAIPSSPPIVLNEAVTIAEVKLYGDVVLRYVSYKAEDTEKSEFLPGFERVEDASSFPLDYGIRRLDHAVGNVPELGPALTYVAGFTGFHQFAEFTADDVGTAESGLNSAVLASNDEMVLLPINEPVHGTKRKSAIQTYLEHNEGAGLQHLALMSEDIFRTLREMRKRSSIGGFDFMPSPPPTYYQNLKKRVGDVLSDDQIKECEELGILVDRDDQGTLLQIFTKPLGDRPTIFIEIIQRVGCMMKDEEGKAYQSGGCGGFGKGNFSELFKSIEEYEKTLEAKQLVG
notes: as for B1
B7: AtHPPD (Arabidopsis thaliana) (protein)
chain: MGHQNAAVSENQNHDDGAASSPGFKLVGFSKFVRKNPKSDKFKVKRFHHIEFWCGDATNVARRFSWGLGMRFSAKSDLSTGNMVHASYLLTSGDLRFLFTAPYSPSLSAGEIKPTTTASIPSFDHGSCRSFFSSHGLGVRAVAIEVEDAESAFSISVANGAIPSSPPIVLNEAVTIAEVKLYGDVVLRYVSYKAEDTEKSEFLPGFERVEDASSFPLDYGIRRLDHAVGNVPELGPALTYVAGFTGFHQFAEFTADDVGTAESGLNSAVLASNDEMVLLPINEPVHGTKRKSQIQTYLEHNEGAGLQHLALMSEDIFRTLREMRKRSSIGGFDFMPSPPPTYYQNLKKRVGDVLSDDQIKECEELGILVDRDDQGTLLQIFTKPLGDRPTIFIEIIQRVGCMMKDEEGKAYQSGGCGGFGKGNFSELFKSIEEYEKTLEAKQLVG
notes: as for B1

The text below walks through data of publication PMC6750108, “Crystal Structure of 4-Hydroxyphenylpyruvate Dioxygenase in Complex with Substrate Reveals a New Starting Point for Herbicide Discovery” (Research, 2019).

Usually Km stands for the substrate concentration at which the rate is half of its maximum. A word on the kcat: it is the number of substrate molecules converted per active site and unit of time at saturation. Usually kcat/Km stands for the second-order rate constant that governs catalysis at low substrate concentration.

Substrate in the first data set: O=C(O)C(=O)Cc1ccc(O)cc1
Kind of data set: purified protein. The conditions noted are these: apparent, air-saturated 20 mM HEPES pH 7.0, 25 °C, 0.1 mM FeSO4, 2 mM ascorbate. It counts as biochemical, Arabidopsis thaliana.
With B1, the Km came out at 5.33 ± 1.59 µM, the kcat came to 0.249 ± 0.025 s⁻¹ and the kcat/Km was 46700 M⁻¹ s⁻¹.

As for B2, the Km was 9.10 ± 0.94 µM, the kcat amounted to 0.924 ± 0.032 s⁻¹ and the kcat/Km was found to be 102000 M⁻¹ s⁻¹.

Take B3: the Km turned out to be 10.83 ± 2.33 µM, the kcat came out at 0.039 ± 0.003 s⁻¹ and the kcat/Km was 3600 M⁻¹ s⁻¹.

Turning to B4, the Km was determined as 15.66 ± 4.29 µM, the kcat worked out at 0.545 ± 0.061 s⁻¹ and the specificity constant (kcat/Km) stood at 34800 M⁻¹ s⁻¹.

For B5, the Km worked out at 30.31 ± 1.67 µM, the kcat was 0.176 ± 0.004 s⁻¹ and the kcat/Km is 5800 M⁻¹ s⁻¹.

As to B6, the Km amounted to 90.41 ± 11.33 µM, the kcat worked out at 0.014 ± 0.001 s⁻¹ and the kcat/Km came to 150 M⁻¹ s⁻¹.

Staying with this data set, now noted: apparent, air-saturated 20 mM HEPES pH 7.0, 25 °C, 0.1 mM FeSO4, 2 mM ascorbate, crystal with Co2+, 2.80 Å.
B7: the Km stood at 1.87 ± 0.37 µM, the kcat is 1.08 ± 0.053 s⁻¹ and the kcat/Km was 577000 M⁻¹ s⁻¹.
